Reference: IntAct's records for PubMed 17855368

B1: DNA-binding protein inhibitor ID-1 (Homo sapiens), P41134 (parent)
chain: MKVASGSTATAAAGPSCALKAGKTASGAGEVVRCLSEQSVAISRCAGGAGARLPALLDEQQVNVLLYDMNGCYSRLKELVPTLPQNRKVSKVEILQHVIDYIRDLQLELNSESEVGTPGGRGLPVRAPLSTLNGEISALTAEAACVPADDRILCR

Variants of: B1
Details: with cav1_human CAV1, Q03135
Chain of cav1_human CAV1, Q03135 (Q03135 whole entry): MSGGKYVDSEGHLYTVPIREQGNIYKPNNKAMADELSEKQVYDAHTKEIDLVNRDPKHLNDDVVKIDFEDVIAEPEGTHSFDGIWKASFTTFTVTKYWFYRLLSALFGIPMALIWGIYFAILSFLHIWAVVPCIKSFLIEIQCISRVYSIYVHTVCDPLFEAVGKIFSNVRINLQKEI

effect of a mutation on the interaction | Variant
decreasing interaction | Y101D
